# According to patent publication US20120251557A1 (VERENIGING VOOR CHRISTELIJK HOGER ONDERWIJS …, published 2012):
# What was measured:
# [1] = target: human CD45ABC isoform in transfected murine 300-19 cells (human) (UniProt P08575); experiment: ELISA: isoform pulled down from transfectant lysate with panCD45 antibody, probed with MGL-Fc; ++ = high binding (OD 450 nm >0.25)
# [2] = target: human CD45BC isoform in transfected murine 300-19 cells (human) (UniProt P08575); experiment: as above
# [3] = target: human CD45AB isoform in transfected murine 300-19 cells (human) (UniProt P08575); experiment: as above
# [4] = target: human CD45B isoform in transfected murine 300-19 cells (human) (UniProt P08575); experiment: as above
# [5] = target: CD45 on human peripheral blood lymphocytes (PBL) (human) (UniProt P08575); experiment: ELISA: MGL-Fc-coated plate captures ligands from PBL lysate, detection with panCD45 antibody; ++ = high binding (OD 450 nm >0.25)
# [6] = target: C-containing CD45 isoforms from PBL (detected with anti-CD45RC); experiment: ELISA: MGL-Fc-coated plate captures ligands from PBL lysate, detection with anti-CD45RC; ++ = high binding (OD 450 nm >0.25)
# [7] = target: B-containing CD45 isoforms from PBL (detected with anti-CD45RB); experiment: ELISA: MGL-Fc-coated plate captures ligands from PBL lysate, detection with anti-CD45RB; ++ = high binding (OD 450 nm >0.25)
# [8] = target: A-containing CD45 isoforms from PBL (detected with anti-CD45RA); experiment: ELISA: MGL-Fc-coated plate captures ligands from PBL lysate, detection with anti-CD45RA; + = low binding (OD 450 nm <0.25)
# [9] = target: CD45 on human peripheral blood lymphocytes (PBL) (human) (UniProt P08575); experiment: cell-based or functional assay
# [10] = target: T1, secreted tumor-associated MUC1 from the supernatant of ZR75 tumor cells (UniProt P15941 24-1097, limits assumed); experiment: ELISA on coated MUC1 from ZR75 supernatant
# T1 construct: Coated on ELISA plates, or loaded on beads through MUC1 antibodies; also called secreted MUC1 from tumor cell line ZR75
# Source text: Example 2, FIG. 8. MGL-Fc detects secreted MUC1 from tumor cell line ZR75. FIG. 8A, MUC1 was harvested out of the supernatant of cultured ZR75 tumor cells and coated on ELISA plates. Both MGLFc and DC-SIGNFc were used to look for carbohydrate-binding epitopes expressed on tumor-associated MUC1. […] Furthermore, EGTA, which inhibits lectin binding to carbohydrates, illustrates that the recognition of MGL to MUC1 is carbohydrate mediated. FIG. 8B, in a second experiment, the tumor-associated MUC1 were coated on fluorescent beads coupled with MUC1 antibodies. Fluorescent MUC1-coupled beads were added to MGL-expressing CHO cells and untransfected CHO cells.
# This experiment is depicted in FIG. 8 of Example 2. In FIG. 8A, MUC1 was harvested out of the supernatant of cultured ZR75 tumor cells and coated on ELISA plates. Both MGLFc and DC-SIGNFc were used to look for carbohydrate-binding epitopes expressed on tumor-associated MUC1. […] Furthermore, EGTA, which inhibits lectin binding to carbohydrates, illustrates that the recognition of MGL to MUC1 is mediated by the expression of carbohydrates.
# CD45 on human peripheral blood lymphocytes (PBL) (human), sequence (P08575 26-1306): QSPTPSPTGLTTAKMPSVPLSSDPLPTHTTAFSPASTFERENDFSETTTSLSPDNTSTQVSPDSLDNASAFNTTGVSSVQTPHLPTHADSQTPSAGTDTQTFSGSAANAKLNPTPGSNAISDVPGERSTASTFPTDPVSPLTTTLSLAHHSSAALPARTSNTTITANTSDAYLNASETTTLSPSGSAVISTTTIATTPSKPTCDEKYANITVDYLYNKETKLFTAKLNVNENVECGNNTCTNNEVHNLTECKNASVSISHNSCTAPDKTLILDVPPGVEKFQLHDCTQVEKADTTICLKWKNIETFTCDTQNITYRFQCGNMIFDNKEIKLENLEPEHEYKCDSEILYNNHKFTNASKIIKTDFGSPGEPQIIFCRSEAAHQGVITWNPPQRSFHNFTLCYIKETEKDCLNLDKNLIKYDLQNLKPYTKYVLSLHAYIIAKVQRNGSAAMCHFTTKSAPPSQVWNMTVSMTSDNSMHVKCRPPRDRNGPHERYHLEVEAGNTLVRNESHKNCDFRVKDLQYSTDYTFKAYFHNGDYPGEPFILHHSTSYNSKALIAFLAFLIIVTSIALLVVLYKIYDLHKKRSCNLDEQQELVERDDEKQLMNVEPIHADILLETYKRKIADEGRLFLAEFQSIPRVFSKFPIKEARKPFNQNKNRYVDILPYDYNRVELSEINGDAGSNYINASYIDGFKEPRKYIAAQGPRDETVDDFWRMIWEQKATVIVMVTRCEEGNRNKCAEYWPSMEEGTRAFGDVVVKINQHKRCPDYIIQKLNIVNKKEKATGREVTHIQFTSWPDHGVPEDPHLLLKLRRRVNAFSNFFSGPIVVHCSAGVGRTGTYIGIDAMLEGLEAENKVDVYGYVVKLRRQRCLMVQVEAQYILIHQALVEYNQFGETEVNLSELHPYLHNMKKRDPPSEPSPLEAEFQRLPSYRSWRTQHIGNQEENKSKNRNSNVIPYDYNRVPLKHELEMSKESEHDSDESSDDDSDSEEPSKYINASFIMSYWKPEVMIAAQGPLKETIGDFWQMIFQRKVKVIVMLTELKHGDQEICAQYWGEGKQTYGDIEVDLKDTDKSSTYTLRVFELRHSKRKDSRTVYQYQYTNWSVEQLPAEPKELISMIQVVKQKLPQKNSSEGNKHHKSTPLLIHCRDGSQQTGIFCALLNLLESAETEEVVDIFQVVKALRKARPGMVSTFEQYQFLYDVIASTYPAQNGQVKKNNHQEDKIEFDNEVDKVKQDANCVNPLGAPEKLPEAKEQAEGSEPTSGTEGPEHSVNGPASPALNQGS
# human CD45ABC isoform in transfected murine 300-19 cells (human), sequence (P08575 26-1306): as above
# T1 sequence (P15941 24-1097 limits assumed): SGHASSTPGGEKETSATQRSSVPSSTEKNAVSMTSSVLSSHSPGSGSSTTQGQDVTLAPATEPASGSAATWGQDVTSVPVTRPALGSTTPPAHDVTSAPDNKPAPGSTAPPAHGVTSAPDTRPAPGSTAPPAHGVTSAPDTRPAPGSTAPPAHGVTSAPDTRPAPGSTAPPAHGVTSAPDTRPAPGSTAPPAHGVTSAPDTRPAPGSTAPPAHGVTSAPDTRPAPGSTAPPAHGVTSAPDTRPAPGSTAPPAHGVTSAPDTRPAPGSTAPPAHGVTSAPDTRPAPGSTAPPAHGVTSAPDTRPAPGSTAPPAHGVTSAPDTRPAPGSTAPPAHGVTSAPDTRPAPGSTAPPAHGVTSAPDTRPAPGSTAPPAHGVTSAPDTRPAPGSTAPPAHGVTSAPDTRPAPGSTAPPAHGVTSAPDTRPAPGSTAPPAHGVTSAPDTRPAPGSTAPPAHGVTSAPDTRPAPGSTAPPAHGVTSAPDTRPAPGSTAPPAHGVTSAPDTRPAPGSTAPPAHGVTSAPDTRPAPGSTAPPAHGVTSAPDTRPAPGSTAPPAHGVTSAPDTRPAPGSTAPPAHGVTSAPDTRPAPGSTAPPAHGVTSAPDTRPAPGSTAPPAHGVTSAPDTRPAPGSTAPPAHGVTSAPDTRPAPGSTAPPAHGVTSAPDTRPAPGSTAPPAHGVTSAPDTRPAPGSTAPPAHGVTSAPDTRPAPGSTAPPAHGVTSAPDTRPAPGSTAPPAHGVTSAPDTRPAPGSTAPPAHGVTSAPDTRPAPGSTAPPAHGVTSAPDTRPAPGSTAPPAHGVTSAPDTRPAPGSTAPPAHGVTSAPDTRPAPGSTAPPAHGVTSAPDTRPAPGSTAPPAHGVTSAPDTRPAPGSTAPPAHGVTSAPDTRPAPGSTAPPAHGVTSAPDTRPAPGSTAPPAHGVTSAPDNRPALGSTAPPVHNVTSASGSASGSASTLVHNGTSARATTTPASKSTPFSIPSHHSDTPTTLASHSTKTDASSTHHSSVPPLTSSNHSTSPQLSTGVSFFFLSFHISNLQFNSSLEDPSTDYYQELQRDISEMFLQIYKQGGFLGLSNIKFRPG
molecule,measurement,setting,value
"MGL-Fc (extracellular part of human MGL, amino acids 61-289, fused at the C-terminus to human IgG1-Fc) (from UniProt Q8IUN9 61-289; P01857 99-330) (Fc fusion)",OD 450 nm,[1],> 0.25 od
same,OD 450 nm,[2],> 0.25 od
same,OD 450 nm,[3],> 0.25 od
same,OD 450 nm,[4],> 0.25 od
same,OD 450 nm,[5],> 0.25 od
same,OD 450 nm,[6],> 0.25 od
same,OD 450 nm,[7],> 0.25 od
same,OD 450 nm,[8],< 0.25 od
"Macrophage galactose-type lectin (MGL) on cells (CHO-MGL transfectants, monocyte-derived dendritic cells, dexamethasone-treated APC) (from UniProt Q8IUN9 1-316) (receptor)","proliferation of allogeneic CD4+ T cells ([methyl-3H]thymidine) in co-culture with dexamethasone-treated APC, with or without blocking anti-MGL antibodies",[9],3 fold
"DC-SIGN-Fc (Fc fusion, UniProt Q9NNX6 64-404, looked up, not shown: Fc part not described) PSSISQEQSRQDAIYQNLTQLKAAVGELSEKSKLQEIYQELTQLKAAVGELPEKSKLQEIYQELTRLKAAVGELPEKSKLQEIYQELTWLKAAVGELPEKSKMQEIYQELTRLKAAVGELPEKSKQQEIYQELTRLKAAVGELPEKSKQQEIYQELTRLKAAVGELPEKSKQQEIYQELTQLKAAVERLCHPCPWEWTFFQGNCYFMSNSQRNWHDSITACKEVGAQLVVIKSAEEQNFLQLQSSRSNRFTWMGLSDLNQEGTWQWVDGSPLLPSFKQYWNRGEPNNVGEEDCAEFSGNGWNDDKCNLAKFWICKKSAASCSRDEEQFLSPAPATPNPPPA",binding result,[10],no binding
